{
  "source": "paper PMC12680535",
  "parents": {"B1": {"name": "NSUN2 (NOP2/Sun RNA methyltransferase family member 2), wild type, in PANC-1 cells [human (endogenous in PANC-1)] / STUB1 (STIP1 homology and U-box containing protein 1), in PANC-1 cells [human (endogenous in PANC-1)] (parent)", "chain 1": "MKGKEEKEGGARLGAGGGSPEKSPSAQELKEQGNRLFVGRKYPEAAACYGRAITRNPLVAVYYTNRALCYLKMQQHEQALADCRRALELDGQSVKAHFFLGQCQLEMESYDEAIANLQRAYSLAKEQRLNFGDDIPSALRIAKKKRWNSIEERRIHQESELHSYLSRLIAAERERELEECQRNHEGDEDDSHVRAQQACIEAKHDKYMADMDELFSQVDEKRKKRDIPDYLCGKISFELMREPCITPSGITYDRKDIEEHLQRVGHFDPVTRSPLTQEQLIPNLAMKEVIDAFISENGWVEDY", "chain 2": "MGRRSRGRRLQQQQRPEDAEDGAEGGGKRGEAGWEGGYPEIVKENKLFEHYYQELKIVPEGEWGQFMDALREPLPATLRITGYKSHAKEILHCLKNKYFKELEDLEVDGQKVEVPQPLSWYPEELAWHTNLSRKILRKSPHLEKFHQFLVSETESGNISRQEAVSMIPPLLLNVRPHHKILDMCAAPGSKTTQLIEMLHADMNVPFPEGFVIANDVDNKRCYLLVHQAKRLSSPCIMVVNHDASSIPRLQIDVDGRKEILFYDRILCDVPCSGDGTMRKNIDVWKKWTTLNSLQLHGLQLRIATRGAEQLAEGGRMVYSTCSLNPIEDEAVIASLLEKSEGALELADVSNELPGLKWMPGITQWKVMTKDGQWFTDWDAVPHSRHTQIRPTMFPPKDPEKLQAMHLERCLRILPHHQNTGGFFVAVLVKKSSMPWNKRQPKLQGKSAETRESTQLSPADLTEGKPTDPSKLESPSFTGTGDTEIAHATEDLENNGSKKDGVCGPPPSKKMKLFGFKEDPFVFIPEDDPLFPPIEKFYALDPSFPRMNLLTRTTEGKKRQLYMVSKELRNVLLNNSEKMKVINTGIKVWCRNNSGEEFDCAFRLAQEGIYTLYPFINSRIITVSMEDVKILLTQENPFFRKLSSETYSQAKDLAKGSIVLKYEPDSANPDALQCPIVLCGWRGKASIRTFVPKNERLHYLRMMGLEVLGEKKKEGVILTNESAASTGQPDNDVTEGQRAGEPNSPDAEEANSPDVTAGCDPAGVHPPR"}},
  "data": [
    {"variants_of": "B1", "assay": "Co-IP (IP: anti-Flag) immunoblot, band quantification", "details": "with STUB1 (STIP1 homology and U-box containing protein 1), MG132 +, n = 3, parent: 1, read off a plot", "values": [
      {"variant": "chain 2 K692E", "response (relative intensity)": 0.3},
      {"variant": "chain 2 K692R", "response (relative intensity)": 2}
    ]}
  ]
}
